According to PMC10491405 (PLOS Pathogens, 2023):

B1: human monoclonal stem antibody FI6v3 (antibody, V domains shown)
VH: QVQLVESGGGVVQPGRSLRLSCAASGFTFSTYAMHWVRQAPGKGLEWVAVISYDANYKYYADSVKGRFTISRDNSKNTLYLQMNSLRAEDTAVYYCAKDSQLRSLLYFEWLSQGYFDYWGQGTLVTVSS
VL: not shown
notes: also called mAb FI6v3; source: VRC, NIH
B2: mouse monoclonal stem antibody C179 (antibody, V domains shown)
VH: EVKLVESGGGLVQPGGSLRLSCGTSGFTLTDDYMTWVRQPPGKALEWLGFIRDRANGYTTEYSASVKGRFTISRDNSQSIVYLQMNTLRVEDSATYYCARPKGYFPYAMDYWGQGTSVIVSS
VL: DIQMTQSPASQSASLGESVTITCLASQTIGTWLAWYQQKPGKSPQLLIYAATSLADGVPSRFSGSGSGTKFSFKISSLQAEDFVSYYCQQLYSTPWTFGGGTRLEIK
notes: source: purified from hybridoma from mouse ascitic fluid

Columns and labels:
Assay in all cases: ELISA
Settings in all cases: both partners purified
[1] = biological target: T1, full-length recombinant H1 HA protein (A/California/07/09, H1N1) (Influenza A virus A/California/07/2009 …, UniProt C3W5X2)
T1 construct: source: bought: Protein Sciences Corporation (purified recombinant full-length HA)

[2] = biological target: T2, H1 rHA ectodomain (trimeric HA ectodomain, A/California/07/09, H1N1) (Influenza A virus A/California/07/2009 …, UniProt C3W5X2)
T2 construct: source: bought: International Reagent Resource and Sino Biological (HA ectodomains)

[3] = biological target: recombinant HA1 head protein (rHA1) of H1 HA (A/California/07/09, H1N1) (Influenza A virus A/California/07/2009 …, UniProt C3W5X2)

| Binder | binding result [1] | binding result [2] | binding result [3] |
| --- | --- | --- | --- |
| B1 | binds | – | – |
| B2 | binds | binds | no binding (tested: 0.5 μg/ml) |
